From the supplement of paper PMC10065799, “High-throughput profiling of sequence recognition by tyrosine kinases and SH2 domains using bacterial peptide display” (eLife, 2023)

Legend:
[1] = tested on: AncSZ; assay: phosphorylation enrichment, bacterial display (enrichment ratio); higher = better substrate or ligand; peptides without Tyr show the background
[2] = biological target: EPHB1 (UniProt P54762); assay: as above
[3] = biological target: EPHB2 (UniProt P29323); assay: as above
[4] = biological target: FGFR1 (UniProt P11362); assay: as above
[5] = biological target: FGFR3 (UniProt P22607); assay: as above
[6] = tested on: Fer (mouse); assay: as above
[7] = biological target: Fes (UniProt P07332); assay: as above
[8] = biological target: Fyn (UniProt P06241); assay: as above
[9] = biological target: Hck (UniProt P08631); assay: as above
[10] = biological target: Jak2 (UniProt O60674); assay: as above
[11] = biological target: MERTK (UniProt Q12866); assay: as above
[12] = tested on: c-Abl (mouse); assay: as above
[13] = tested on: c-Src; assay: as above
[14] = biological target: Grb2 SH2 (UniProt P62993); assay: SH2 binding enrichment of the phosphorylated peptide, bacterial display (enrichment ratio); higher = better substrate or ligand; peptides without Tyr show the background
[15] = biological target: SHP2-C SH2; assay: as above
[16] = biological target: c-Src SH2; assay: as above
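Throughout, for SH2 binding enrichment of the phosphorylated peptide, bacterial display: peptide library displayed on the E. coli surface as eCPX fusions, selected cells deep-sequenced, score is each peptide's frequency after selection divided by its frequency in the input.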
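Throughout, for phosphorylation enrichment, bacterial display: 11-residue human phosphosite peptides and single-mutation variants displayed on the E. coli surface, counted by deep sequencing, each peptide's frequency after selection divided by its frequency in the unselected input library; frequency after pTyr selection over input frequency; kinase dosed for 20-30% of maximal phosphorylation in three min.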

FGFR3, sequence (P22607 whole entry, looked up): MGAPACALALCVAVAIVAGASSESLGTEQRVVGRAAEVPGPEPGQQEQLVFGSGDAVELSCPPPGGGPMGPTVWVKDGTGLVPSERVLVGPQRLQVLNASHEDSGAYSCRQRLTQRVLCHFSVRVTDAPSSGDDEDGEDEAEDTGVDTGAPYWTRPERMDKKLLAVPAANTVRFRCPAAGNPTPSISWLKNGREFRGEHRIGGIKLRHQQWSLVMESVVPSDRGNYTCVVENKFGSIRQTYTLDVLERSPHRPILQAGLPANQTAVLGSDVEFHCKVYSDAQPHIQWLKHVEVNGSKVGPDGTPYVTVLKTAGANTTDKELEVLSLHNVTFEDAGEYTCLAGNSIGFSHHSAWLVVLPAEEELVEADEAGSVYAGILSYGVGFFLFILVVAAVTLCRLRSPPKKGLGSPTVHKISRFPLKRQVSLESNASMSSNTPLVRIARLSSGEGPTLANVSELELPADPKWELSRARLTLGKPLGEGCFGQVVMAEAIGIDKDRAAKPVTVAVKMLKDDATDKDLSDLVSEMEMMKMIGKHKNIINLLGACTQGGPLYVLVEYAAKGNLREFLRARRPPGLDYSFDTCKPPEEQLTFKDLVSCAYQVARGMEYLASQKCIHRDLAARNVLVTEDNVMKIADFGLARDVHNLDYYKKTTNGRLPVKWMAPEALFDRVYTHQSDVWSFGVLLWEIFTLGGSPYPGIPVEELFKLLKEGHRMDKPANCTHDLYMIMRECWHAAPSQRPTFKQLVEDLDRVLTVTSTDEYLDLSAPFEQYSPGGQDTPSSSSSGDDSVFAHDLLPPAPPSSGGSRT
EPHB2, sequence (P29323 whole entry, looked up): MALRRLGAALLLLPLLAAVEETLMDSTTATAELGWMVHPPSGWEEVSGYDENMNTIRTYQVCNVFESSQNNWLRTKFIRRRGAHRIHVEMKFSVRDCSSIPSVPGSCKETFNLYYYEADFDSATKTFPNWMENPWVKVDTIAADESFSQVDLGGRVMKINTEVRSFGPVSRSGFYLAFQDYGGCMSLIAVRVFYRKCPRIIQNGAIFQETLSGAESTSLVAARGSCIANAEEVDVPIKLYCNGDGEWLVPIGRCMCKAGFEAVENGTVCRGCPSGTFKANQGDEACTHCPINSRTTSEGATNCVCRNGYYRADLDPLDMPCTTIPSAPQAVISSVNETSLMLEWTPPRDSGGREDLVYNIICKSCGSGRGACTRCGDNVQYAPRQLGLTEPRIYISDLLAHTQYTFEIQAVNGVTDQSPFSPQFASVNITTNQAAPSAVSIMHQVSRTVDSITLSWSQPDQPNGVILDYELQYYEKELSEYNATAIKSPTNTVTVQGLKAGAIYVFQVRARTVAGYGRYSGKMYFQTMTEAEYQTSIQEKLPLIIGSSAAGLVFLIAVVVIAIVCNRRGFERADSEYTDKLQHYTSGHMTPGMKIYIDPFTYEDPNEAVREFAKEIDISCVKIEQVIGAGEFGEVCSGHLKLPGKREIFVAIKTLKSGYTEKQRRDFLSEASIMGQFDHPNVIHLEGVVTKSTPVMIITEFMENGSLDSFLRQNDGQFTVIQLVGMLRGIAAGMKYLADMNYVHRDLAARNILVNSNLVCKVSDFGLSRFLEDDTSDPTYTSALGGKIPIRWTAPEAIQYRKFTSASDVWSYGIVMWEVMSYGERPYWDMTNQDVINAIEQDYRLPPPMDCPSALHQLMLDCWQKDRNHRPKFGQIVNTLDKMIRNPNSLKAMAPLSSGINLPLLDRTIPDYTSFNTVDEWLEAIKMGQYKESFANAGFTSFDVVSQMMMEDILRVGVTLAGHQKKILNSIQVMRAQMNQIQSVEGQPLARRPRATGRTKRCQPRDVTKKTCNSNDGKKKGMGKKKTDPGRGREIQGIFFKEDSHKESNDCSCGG
Fyn, sequence (P06241 whole entry, looked up): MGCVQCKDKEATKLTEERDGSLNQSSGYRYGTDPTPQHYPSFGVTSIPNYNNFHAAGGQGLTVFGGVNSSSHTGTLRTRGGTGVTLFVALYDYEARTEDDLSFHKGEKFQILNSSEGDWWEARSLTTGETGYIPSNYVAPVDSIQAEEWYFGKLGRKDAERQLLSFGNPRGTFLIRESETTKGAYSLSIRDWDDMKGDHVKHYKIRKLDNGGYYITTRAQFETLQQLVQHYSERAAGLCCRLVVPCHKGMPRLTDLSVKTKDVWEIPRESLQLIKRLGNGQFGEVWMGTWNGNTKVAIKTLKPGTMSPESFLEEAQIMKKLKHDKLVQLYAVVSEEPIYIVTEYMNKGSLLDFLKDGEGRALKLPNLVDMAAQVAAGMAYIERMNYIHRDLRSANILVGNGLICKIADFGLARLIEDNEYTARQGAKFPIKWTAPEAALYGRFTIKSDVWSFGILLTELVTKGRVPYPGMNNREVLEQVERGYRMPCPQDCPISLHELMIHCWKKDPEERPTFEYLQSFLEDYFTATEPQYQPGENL
Jak2, sequence (O60674 whole entry, looked up): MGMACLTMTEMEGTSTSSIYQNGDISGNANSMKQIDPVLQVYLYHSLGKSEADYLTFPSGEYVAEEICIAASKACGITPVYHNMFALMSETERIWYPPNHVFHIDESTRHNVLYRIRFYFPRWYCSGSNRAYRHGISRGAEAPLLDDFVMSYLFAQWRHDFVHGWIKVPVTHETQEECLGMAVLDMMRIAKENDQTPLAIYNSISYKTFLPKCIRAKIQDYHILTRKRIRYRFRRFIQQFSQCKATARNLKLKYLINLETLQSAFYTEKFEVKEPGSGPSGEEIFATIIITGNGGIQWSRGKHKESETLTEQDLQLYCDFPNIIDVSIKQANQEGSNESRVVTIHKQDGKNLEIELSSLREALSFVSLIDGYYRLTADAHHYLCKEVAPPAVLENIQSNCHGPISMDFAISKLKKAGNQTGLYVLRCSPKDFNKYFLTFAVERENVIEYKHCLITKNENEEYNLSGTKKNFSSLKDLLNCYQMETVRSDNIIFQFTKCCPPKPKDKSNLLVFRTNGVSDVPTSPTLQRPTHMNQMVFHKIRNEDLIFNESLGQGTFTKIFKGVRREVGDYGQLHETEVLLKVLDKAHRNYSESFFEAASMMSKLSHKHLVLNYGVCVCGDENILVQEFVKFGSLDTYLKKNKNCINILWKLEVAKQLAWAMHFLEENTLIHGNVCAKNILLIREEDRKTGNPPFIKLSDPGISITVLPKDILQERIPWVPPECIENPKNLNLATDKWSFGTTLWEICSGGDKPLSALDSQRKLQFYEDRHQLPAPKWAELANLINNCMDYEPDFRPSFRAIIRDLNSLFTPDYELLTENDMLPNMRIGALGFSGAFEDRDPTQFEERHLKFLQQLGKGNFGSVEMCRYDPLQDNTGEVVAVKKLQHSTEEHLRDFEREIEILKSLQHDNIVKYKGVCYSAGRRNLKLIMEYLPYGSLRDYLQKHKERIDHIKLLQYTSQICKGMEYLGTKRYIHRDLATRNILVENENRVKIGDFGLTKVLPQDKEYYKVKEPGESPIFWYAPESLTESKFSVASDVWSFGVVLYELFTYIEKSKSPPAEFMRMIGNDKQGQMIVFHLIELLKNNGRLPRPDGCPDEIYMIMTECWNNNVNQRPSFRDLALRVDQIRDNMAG
Fes, sequence (P07332 whole entry, looked up): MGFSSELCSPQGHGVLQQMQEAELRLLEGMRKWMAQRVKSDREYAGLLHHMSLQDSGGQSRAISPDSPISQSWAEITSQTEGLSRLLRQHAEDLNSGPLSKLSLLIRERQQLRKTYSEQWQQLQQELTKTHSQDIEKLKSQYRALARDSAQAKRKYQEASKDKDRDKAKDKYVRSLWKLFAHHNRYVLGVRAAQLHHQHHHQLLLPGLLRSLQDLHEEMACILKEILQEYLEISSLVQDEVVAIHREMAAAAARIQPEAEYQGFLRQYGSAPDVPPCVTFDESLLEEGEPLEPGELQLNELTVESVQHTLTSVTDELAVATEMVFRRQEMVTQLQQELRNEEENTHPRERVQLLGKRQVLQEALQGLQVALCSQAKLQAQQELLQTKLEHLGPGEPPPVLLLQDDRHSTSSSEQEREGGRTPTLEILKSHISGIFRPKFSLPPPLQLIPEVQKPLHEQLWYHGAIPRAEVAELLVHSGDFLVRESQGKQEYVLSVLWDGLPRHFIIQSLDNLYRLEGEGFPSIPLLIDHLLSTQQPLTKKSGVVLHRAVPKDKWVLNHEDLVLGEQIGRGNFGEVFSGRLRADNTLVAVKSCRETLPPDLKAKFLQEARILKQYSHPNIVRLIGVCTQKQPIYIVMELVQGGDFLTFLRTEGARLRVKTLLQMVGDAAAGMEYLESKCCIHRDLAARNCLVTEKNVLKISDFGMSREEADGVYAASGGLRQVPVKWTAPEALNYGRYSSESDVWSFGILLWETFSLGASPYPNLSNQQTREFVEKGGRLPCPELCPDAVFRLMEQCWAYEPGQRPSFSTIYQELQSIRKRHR
Hck, sequence (P08631 whole entry, looked up): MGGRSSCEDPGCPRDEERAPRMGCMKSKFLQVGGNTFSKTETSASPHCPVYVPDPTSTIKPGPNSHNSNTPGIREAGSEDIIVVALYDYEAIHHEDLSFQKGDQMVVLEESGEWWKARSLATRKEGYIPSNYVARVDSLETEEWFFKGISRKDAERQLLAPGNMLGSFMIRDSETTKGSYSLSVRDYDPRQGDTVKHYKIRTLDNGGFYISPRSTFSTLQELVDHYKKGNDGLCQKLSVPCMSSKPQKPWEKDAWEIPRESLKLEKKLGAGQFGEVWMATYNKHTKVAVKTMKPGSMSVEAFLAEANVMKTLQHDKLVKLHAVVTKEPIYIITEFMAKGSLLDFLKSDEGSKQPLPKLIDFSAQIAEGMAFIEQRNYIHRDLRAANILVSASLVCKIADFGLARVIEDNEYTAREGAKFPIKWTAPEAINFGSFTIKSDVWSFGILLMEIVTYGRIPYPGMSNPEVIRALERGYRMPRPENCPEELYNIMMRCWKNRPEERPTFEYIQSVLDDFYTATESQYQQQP

| Sequence | SH2 binding enrichment [14] | SH2 binding enrichment [15] | SH2 binding enrichment [16] | phosphorylation enrichment [1] | phosphorylation enrichment [2] | phosphorylation enrichment [3] | phosphorylation enrichment [4] | phosphorylation enrichment [5] | phosphorylation enrichment [6] | phosphorylation enrichment [7] | phosphorylation enrichment [8] | phosphorylation enrichment [9] | phosphorylation enrichment [10] | phosphorylation enrichment [11] | phosphorylation enrichment [12] | phosphorylation enrichment [13] |
| --- | --- | --- | --- | --- | --- | --- | --- | --- | --- | --- | --- | --- | --- | --- | --- | --- |
| FSQETYYRVSN [ABCD1_Y180_Q178E] | 0.841 | 0.628 | 0.654 | 1.26 | 4.43 | 2.73 | 4.96 | 3.85 | 0.492 | 0.812 | 1.77 | 4.2 | 6.03 | 3.78 | 1.03 | 4.41 |
| FSQQTYYPVSN [ABCD1_Y180_R182P] | 0.938 | 0.818 | 0.877 | 0.805 | 4.58 | 3.55 | 9.03 | 6.85 | 0.983 | 0.647 | 2.76 | 5.05 | 7.07 | 7.46 | 0.697 | 4.37 |
| GAAMLYFPSVS [GPR143_Y177_YF] | 0.871 | 0.895 | 0.503 | 0.613 | 0.465 | 0.423 | 0.66 | 0.736 | 0.437 | 0.764 | 0.445 | 0.512 | 1.36 | 0.732 | 0.535 | 0.56 |
| GDEVEYMSVSF [GCLC_Y53_L55S] | 0.736 | 0.623 | 0.376 | 1.56 | 0.561 | 0.832 | 1.01 | 1.17 | 0.972 | 1.16 | 1.41 | 1.26 | 1.11 | 0.418 | 0.846 | 1.49 |
| GEDDVYDSVPG [FGR_opt_2018] | 0.85 | 0.623 | 0.587 | 1.39 | 0.683 | 0.762 | 0.676 | 0.783 | 0.861 | 1.2 | 1.59 | 1.37 | 0.946 | 0.544 | 0.617 | 0.933 |
| GFPVRYTDVSN [DNMT3B_Y815_H814R] | 0.96 | 1.38 | 1.24 | 0.606 | 0.678 | 0.441 | 0.457 | 0.531 | 0.398 | 0.665 | 0.423 | 0.451 | 0.712 | 0.466 | 0.529 | 0.448 |
| GFVEDYRPPFF [ACVRL1_Y421_I417F_YF] | 0.784 | 0.675 | 0.398 | 0.944 | 0.504 | 0.444 | 0.537 | 0.6 | 0.411 | 0.987 | 0.442 | 0.525 | 0.879 | 0.428 | 0.868 | 0.501 |
| GGQSVYHVHLH [HINT1_Y109] | 1.19 | 0.904 | 0.897 | 0.619 | 0.476 | 0.487 | 0.495 | 0.532 | 0.455 | 0.77 | 0.865 | 0.686 | 0.629 | 0.434 | 0.581 | 1.01 |
| GGQSVYHVNLH [HINT1_Y109_H112N] | 0.698 | 0.663 | 0.491 | 0.583 | 0.495 | 0.364 | 0.429 | 0.376 | 0.337 | 0.617 | 1.01 | 0.583 | 0.491 | 0.387 | 0.491 | 1.03 |
| GHLFAYDWISI [BEST1_Y227_YF] | 1.36 | 1.16 | 1.09 | 1.25 | 0.938 | 0.823 | 2.76 | 1.74 | 15.1 | 1.48 | 0.894 | 1.4 | 0.707 | 6.92 | 0.526 | 0.915 |
| GHPFAYDWISI [BEST1_Y227_L224P_YF] | 1.36 | 0.869 | 1.72 | 1.04 | 0.932 | 0.721 | 2.03 | 1.29 | 14.7 | 1.22 | 0.478 | 0.811 | 0.774 | 6.57 | 0.562 | 0.629 |
| GIMEEYQLPYY [BMPR1A_Y453_V450M] | 0.845 | 0.44 | 5.46 | 5.83 | 0.748 | 0.795 | 2.23 | 1.57 | 0.942 | 1.4 | 1.4 | 0.998 | 1.28 | 0.398 | 1.25 | 3.76 |
| GIVEDYRPPLF [ACVRL1_Y421_F425L_YF] | 0.801 | 0.671 | 0.349 | 0.841 | 0.442 | 0.418 | 0.434 | 0.722 | 0.406 | 0.904 | 0.458 | 0.343 | 0.626 | 0.377 | 0.511 | 0.373 |
| GIVEEYQLPFF [BMPR1A_Y453_YF] | 0.799 | 0.629 | 0.438 | 3.31 | 0.599 | 0.724 | 0.812 | 0.822 | 0.587 | 1.35 | 0.591 | 0.604 | 1.34 | 0.588 | 2.24 | 0.746 |
| GLNKGYRMVVN [HINT1_Y94] | 0.665 | 0.503 | 0.424 | 0.531 | 0.307 | 0.392 | 0.388 | 0.449 | 0.318 | 0.696 | 0.375 | 0.436 | 0.403 | 0.303 | 0.461 | 0.34 |
| GNHISYYQSDG [CACNA1C_Y1757_V1755I] | 0.885 | 0.751 | 2.32 | 0.821 | 0.668 | 0.4 | 0.655 | 0.569 | 0.367 | 0.569 | 0.514 | 0.397 | 0.484 | 0.411 | 0.403 | 0.496 |
| GNHVSYFQSDG [CACNA1C_Y1757_YF] | 0.84 | 0.706 | 0.618 | 0.656 | 0.373 | 0.427 | 0.495 | 0.488 | 0.369 | 0.791 | 0.458 | 0.445 | 0.636 | 0.443 | 0.517 | 0.42 |
| GQLIVYAPPEW [CNTN6_Y315_F314V] | 0.984 | 0.767 | 0.53 | 1.02 | 0.574 | 1.66 | 0.513 | 0.665 | 0.619 | 0.985 | 1.81 | 2.22 | 0.932 | 1.37 | 9.23 | 1.75 |
| GRLFAYPDTHC [CAT_Y358_R363C] | 0.835 | 0.846 | 0.531 | 0.784 | 0.556 | 0.512 | 0.466 | 0.687 | 0.479 | 1.05 | 0.466 | 0.481 | 0.785 | 0.432 | 0.75 | 0.403 |

Now from value to sequence, other results behind:

| SH2 binding enrichment [14] | SH2 binding enrichment [15] | SH2 binding enrichment [16] | Sequence | phosphorylation enrichment [1] | phosphorylation enrichment [2] | phosphorylation enrichment [3] | phosphorylation enrichment [4] | phosphorylation enrichment [5] | phosphorylation enrichment [6] | phosphorylation enrichment [7] | phosphorylation enrichment [8] | phosphorylation enrichment [9] | phosphorylation enrichment [10] | phosphorylation enrichment [11] | phosphorylation enrichment [12] | phosphorylation enrichment [13] |
| --- | --- | --- | --- | --- | --- | --- | --- | --- | --- | --- | --- | --- | --- | --- | --- | --- |
| 0.948 | 0.727 | 0.688 | FSVDGYDSSVR [KCNQ1_Y461] | 0.693 | 0.519 | 0.513 | 0.427 | 0.53 | 0.36 | 0.773 | 0.461 | 0.393 | 0.672 | 0.311 | 0.648 | 0.37 |
| 1.03 | 0.641 | 0.617 | FYDANCDGKEY [MAPRE2_Y162_Y162C] | 1.21 | 0.651 | 0.682 | 0.497 | 0.922 | 0.527 | 1.4 | 0.612 | 0.563 | 1.13 | 0.539 | 0.81 | 0.642 |
| 0.642 | 0.658 | 0.561 | GDGRFYMKEAI [PGM1_Y66] | 0.875 | 0.552 | 0.613 | 0.52 | 0.682 | 0.549 | 1.11 | 0.45 | 0.454 | 1.03 | 0.311 | 0.709 | 0.38 |
| 0.751 | 10.1 | 1.84 | GENTMYAQVFN [LY9_Y603] | 0.912 | 1.47 | 0.787 | 0.56 | 0.561 | 5.6 | 0.968 | 2.5 | 3.32 | 0.803 | 2.18 | 0.958 | 2.38 |
| 0.778 | 0.876 | 4.32 | GESQGYDIMEA [MSH2_Y863_P868A] | 0.85 | 0.469 | 0.484 | 0.536 | 0.546 | 0.463 | 0.883 | 0.456 | 0.492 | 0.744 | 0.42 | 0.577 | 0.417 |
| 0.995 | 0.832 | 0.564 | GFFDLYGGEKF [PTPN11_Y66_D61G_YF] | 0.906 | 0.603 | 0.858 | 0.484 | 0.575 | 0.72 | 1.05 | 2.13 | 3.85 | 0.914 | 0.504 | 0.767 | 2.7 |
| 0.91 | 0.597 | 0.434 | GGDAVYTNGTI [RFX2_Y82_A86T] | 0.778 | 1.39 | 0.488 | 0.392 | 0.613 | 0.464 | 0.836 | 1.17 | 1.19 | 0.667 | 0.391 | 0.74 | 1.32 |
| 0.997 | 0.562 | 0.428 | GGSDRYGSLRP [MYLK_Y846] | 0.494 | 0.385 | 0.418 | 0.425 | 0.407 | 0.332 | 0.61 | 0.385 | 0.339 | 0.716 | 0.37 | 0.495 | 0.452 |
| 0.83 | 0.685 | 0.553 | GIKAAYEAERG [LMNA_Y81_L85R] | 0.566 | 0.344 | 0.363 | 0.403 | 0.487 | 0.365 | 0.755 | 0.329 | 0.406 | 0.517 | 0.347 | 0.475 | 0.344 |
| 0.62 | 0.58 | 0.325 | GLPINYTTRRI [LAMA2_Y2894] | 0.499 | 0.323 | 0.441 | 0.565 | 0.415 | 0.557 | 0.534 | 0.549 | 0.569 | 0.468 | 0.599 | 0.404 | 0.611 |
| 1.05 | 0.612 | 0.593 | GLRFGYGGLGG [KRTAP20-2_Y15_V17G_YF] | 0.655 | 0.455 | 0.467 | 0.509 | 0.53 | 0.368 | 0.739 | 0.394 | 0.376 | 0.581 | 0.456 | 0.455 | 0.419 |
| 1.53 | 1.41 | 1.15 | GMRHGYGVRQS [JPH2_Y141] | 0.451 | 0.38 | 0.373 | 0.355 | 0.405 | 0.328 | 0.556 | 0.369 | 0.36 | 0.457 | 0.384 | 0.668 | 0.326 |
| 0.792 | 0.708 | 0.465 | GPQGFYSNKLV [PTPN14_Y506_V505F] | 0.529 | 0.307 | 0.387 | 0.369 | 0.406 | 0.409 | 0.441 | 0.348 | 0.393 | 0.445 | 0.641 | 0.586 | 0.45 |
| 0.81 | 2.83 | 0.644 | GREEFYVHYVG [KAT8_Y90] | 1.16 | 0.583 | 0.67 | 0.711 | 1.02 | 0.428 | 1.16 | 0.518 | 0.563 | 1.02 | 0.422 | 0.788 | 0.486 |
